± gives the uncertainty stated by the source.
Assay: self-splicing fitness, log relative to wild type (ln ratio); higher = more splicing; Tetrahymena group I intron in knt gene, E. coli kanamycin selection, DiMSum; sequences stand for … in CUCUCU…GGAGGGAAAAGUUAUCAGGCAUGCACCUGGUAGCUAGUCUUUAAACCAAUAGAUUGCAUCGGUUUAAAAGGCAAGACCGUCAAAUUGCGGGAAAGGGGUCAACAGCCGUUCAGUACCAAGUCUCAGGGGAAACUUUGAGAUGGCCUUGCAAAGGGUAUGGUAAUAAGCUGACGGACAUGGUCCUAACCACGCAGCCAAGUCCUAAGUCAACAGAUCUUCUGUUGAUAUGGAUGCAGUUCACAGACUAAAUGUCGGUCGGGGAAGAUGUAUUCUUCUCAUAAGAUAUAGUCGGACCUCUCCUUAAUGGGAGCUAGCGGAUGAAGUGAUGCAACACUGGAGCCGCUGGGAACUAAUUUGUAUGCGAAAGUAUAUUGAUUAGUUUUGGAGUACUCGUGGUCG
Procedure, shortened: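 A randomised library covering all eight P1ex-region intron nucleotides was built with the intron in the knt kanamycin-resistance gene on pET-22b(+) and held in E. coli BL21(DE3). Cells were grown overnight at 37°C or 30°C on LB agar, with or without 25 μg/mL kanamycin, plus 100 μg/mL carbenicillin, 50 μM IPTG and 0.2% rhamnose, and pooled colonies were amplicon-sequenced on an Illumina HiSeq 2500. DiMSum fitness is the error-weighted combination of wild-type-normalised replicate fold changes, kanamycin versus none.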

Sequence | self-splicing fitness (ln) (30 °C) | self-splicing fitness (ln) (37 °C)
CCCGAGCAAUAUUACGGGUU | -3.82 ± 0.16 | -2.89 ± 0.18
CCCGAGCAAUAUUACGUACG | -3.24 ± 0.18 | -2.83 ± 0.24
CCCGAGCAAUAUUACGUAGC | -3.06 ± 0.24 | -2.49 ± 0.33
CCCGAGCAAUAUUACGUAUG | -4.9 ± 0.45 | -2 ± 0.19
CCCGAGCAAUAUUACGUCAA | -3.36 ± 0.2 | -3.09 ± 0.2
CCCGAGCAAUAUUACGUCUU | -3.38 ± 0.18 | -2.16 ± 0.19
CCCGAGCAAUAUUACGUGAA | -3.43 ± 0.37 | -1.87 ± 0.34
CCCGAGCAAUAUUACGUGAU | -4.13 ± 0.28 | -2.22 ± 0.19
CCCGAGCAAUAUUACGUUGA | -4.57 ± 0.32 | -2.78 ± 0.2
CCCGAGCAAUAUUACGUUUU | -4.01 ± 0.33 | -2.01 ± 0.23
CCCUAGCAAUAUUACGAAAG | -3.5 ± 0.26 | –
CCCUAGCAAUAUUACGAAUC | -3.92 ± 0.22 | -2.61 ± 0.18
CCCUAGCAAUAUUACGACAC | – | -2.32 ± 0.28
CCCUAGCAAUAUUACGAGCC | -3.5 ± 0.29 | –
CCCUAGCAAUAUUACGAGGU | -3.87 ± 0.16 | -0.753 ± 0.1
CCCUAGCAAUAUUACGAUUA | -1.88 ± 0.44 | -1.33 ± 0.34
CCCUAGCAAUAUUACGCAGG | -3.06 ± 0.22 | -3.3 ± 0.3
CCCUAGCAAUAUUACGCAGU | -4.87 ± 0.36 | -2.2 ± 0.22
CCCUAGCAAUAUUACGCAUU | -3.74 ± 0.28 | -2.82 ± 0.43
CCCUAGCAAUAUUACGCGAA | -1.83 ± 0.2 | -2.2 ± 0.23

Sequence | self-splicing fitness (ln) (30 °C) | self-splicing fitness (ln) (37 °C)
CCCUAGCAAUAUUACGCGCA | -2.49 ± 0.45 | -1.72 ± 0.32
CCCUAGCAAUAUUACGGAGA | -4.85 ± 0.46 | -2.68 ± 0.2
CCCUAGCAAUAUUACGGAUC | -4.33 ± 0.39 | -1.71 ± 0.25
CCCUAGCAAUAUUACGGGGU | -2.49 ± 0.092 | -2.91 ± 0.12
CCCUAGCAAUAUUACGGUCC | -3.45 ± 0.22 | -1.51 ± 0.28
CCCUAGCAAUAUUACGUCGA | -3.58 ± 0.21 | -2.51 ± 0.19
CCCUAGCAAUAUUACGUCUU | -2.95 ± 0.13 | -2.54 ± 0.25
CCCUAGCAAUAUUACGUGAA | -2.8 ± 0.16 | -2.62 ± 0.2
CCCUAGCAAUAUUACGUGGC | -3.35 ± 0.18 | -2.68 ± 0.16
CCCUAGCAAUAUUACGUGUU | -4.27 ± 0.18 | -3.37 ± 0.17
CCCUAGCAAUAUUACGUUAC | -4.52 ± 0.29 | -2.53 ± 0.27
CCCUAGCAAUAUUACGUUAG | -3.73 ± 0.22 | -2.36 ± 0.18
CCCUAGCAAUAUUACGUUGC | -3.75 ± 0.29 | -1.82 ± 0.18
CCGAAGCAAUAUUACGAACU | -3.08 ± 0.29 | -2.17 ± 0.46
CCGAAGCAAUAUUACGAAUU | -3.28 ± 0.4 | -2.87 ± 0.28
CCGAAGCAAUAUUACGACAA | -3.59 ± 0.4 | -2.52 ± 0.29
CCGAAGCAAUAUUACGACUC | -3.36 ± 0.32 | –
CCGAAGCAAUAUUACGAGUU | -2.77 ± 0.1 | -2.96 ± 0.17
CCGAAGCAAUAUUACGAUCG | -0.383 ± 0.065 | -0.283 ± 0.076

— the supplement of paper PMC7877785
